According to US20240336680A1:
Where a chain is given by its changes, count along the chain named. Values belong to the binder of their own block, whether it stands above or below them.

Key:
[1] = molecular target: human CLDN18.2 (isoform 2 of claudin-18), full length, expressed on CHO cells (human) (UniProt P56856); assay: FACS, serial dilutions on CHO cells expressing human CLDN18.2
[2] = molecular target: human CLDN18.2 (isoform 2 of claudin-18), full length, expressed on CHO cells (human) (UniProt P56856); assay: FACS titration on CHO/CLDN18.2 cells, 0.00001 to 100 ug/mL

EC50 [1]: 1 µg/mL
B1: Chimeric T252S4 H/L (antibody, human IgG1, V domains shown)
VH: EVQLQQSGPELVKPGASMKISCKASGYSFTGYNMNWVKQTHGKNLEWIGLINPYNGGTRYNQKFKGKATLTVDKSSSTAYMELLSLTSEDSAVYFCARMGLGNAMDYWGQGTSVTVSS
VL: DIVMTQSPSSLTVTAGEKVTMSCKSSQNLLNSGNQKNYLTWYQQKPGQPPKLLIYWASTMESGVPDRFTGSGSGTDFTLTISSVQAEDLAVYYCQNDYIYPLPFGAGTKLELK

EC50 (read off the curve) [2]: 1 µg/mL
B2: HuT252S4 H3/L1 (antibody, V domains shown)
VH: EVQLVQSGAEVKKPGESLKISCKGSGYSFTGYNMNWVRQMPGKNLEWIGLINPYNGGTRYNQKFKGKATLSVDKSISTAYLQWSSLKASDTAMYFCARMGLGNAMDYWGQGTTVTVSS
VL: DIVMTQSPDSLAVSLGERATINCKSSQNLLNSGNQKNYLTWYQQKPGQPPKLLIYWASTMESGVPDRFSGSGSGTDFTLTISSLQAEDVAVYYCQNDYIYPLPFGQGTKLEIK

EC50 (read off the curve) [2]: 1 µg/mL
B3: HuT252S4 H3/L2 (antibody, V domains shown)
VH: B2 VH
VL: B2 VL with N31Q, M60R
